Reference: article PMC3394726 (PLoS ONE, 2012)

Target: T1, human complement C1q (human, UniProt P02745;P02746;P02747)
T1 construct: source: purified from human plasma; endogenous, normal human serum (NHS); copies: + +
Test: ELISA; SMSB3 or SMSB4 coated at 10 µg/ml; serial dilutions of normal human serum (0-100%) for 10, 20, 40 or 60 min at 37°C; bound complement factors detected with specific antibodies
Details: one partner purified

T1 sequence (P02745 23-245, chain 1 of 3): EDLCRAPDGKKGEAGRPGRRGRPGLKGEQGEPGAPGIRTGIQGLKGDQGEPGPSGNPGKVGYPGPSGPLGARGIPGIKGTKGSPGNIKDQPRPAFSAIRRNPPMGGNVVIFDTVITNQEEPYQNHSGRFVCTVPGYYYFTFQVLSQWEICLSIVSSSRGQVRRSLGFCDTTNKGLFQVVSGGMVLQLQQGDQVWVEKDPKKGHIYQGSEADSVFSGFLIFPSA
T1 sequence (P02746 28-253, chain 2 of 3): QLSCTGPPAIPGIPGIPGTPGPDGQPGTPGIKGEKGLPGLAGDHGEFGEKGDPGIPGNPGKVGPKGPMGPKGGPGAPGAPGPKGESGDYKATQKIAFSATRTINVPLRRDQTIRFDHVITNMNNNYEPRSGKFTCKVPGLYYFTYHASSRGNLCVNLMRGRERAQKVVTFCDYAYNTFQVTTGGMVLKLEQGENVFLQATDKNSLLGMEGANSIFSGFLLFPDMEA
T1 sequence (P02747 29-245, chain 3 of 3): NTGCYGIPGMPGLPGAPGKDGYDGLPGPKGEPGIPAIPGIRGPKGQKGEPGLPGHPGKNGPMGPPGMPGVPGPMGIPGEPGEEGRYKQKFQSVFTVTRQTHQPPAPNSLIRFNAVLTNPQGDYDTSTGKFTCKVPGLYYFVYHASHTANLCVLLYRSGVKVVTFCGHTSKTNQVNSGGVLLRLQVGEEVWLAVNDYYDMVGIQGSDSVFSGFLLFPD

B1: scabies mite serpin SMSB4, wild type (natural protein)
chain: KPQHHSQSHQQPVLASDPNEDPLKALNLLQQQKQFTEHFFQQNNEKLNLLGGQEIIKCFDVNFTSNVLNNIDHISKIMIDGSRHFGLRLFQILNLFEPKTSSPGLVYSPISVWSTLILTYLGSDGVTEQELSQKLKLNQLPKPLVALAYRSLKWWKDFNVLKLMQNHTDATQVCSANKLYINDHLLVKDCFRTIFGDEIEMKSFSSRPQESLSEINDWVRVQTQGHIPNLLGPESISSNTNIVMINAVYFKSFWAQQFDSSKTKKQRFYVSMNEELEADMMTMDSVSVMYGISEELRASAVEIPYSNPDYSFLIILPDITRSLDSMIRTLTWNKIQLLLQNMYDDEVKLMIPKFRSEQEFELAGPLFSLGIKKLFDPRYANLNSIFMNSNNSRVALDSVIHKSFISVDEEGTEAAAATAVIFARSGRPAFPTEFIADRPFLYIIRDVSSNQLLFIGTVRRPYASQAIVA
notes: also called SMB4; SMSB4/wt
binding result: binds
